Results published in the supplement of paper PMC9112550, “Optimization of the antimicrobial peptide Bac7 by deep mutational scanning” (BMC Biology, 2022).

tested on: Escherichia coli TOP10; test: shrunken log2 fold change of peptide-encoding DNA abundance (4.5 h post-induction vs induction); higher = less antimicrobial activity (less host growth inhibition); details: time post-induction: 4.5 h; library: site-saturation at positions 5, 18, 19, 20
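Also: peptides expressed intracellularly from a pBAD plasmid library in pooled LB shake-flask culture, induced with 0.3% L-arabinose, DNA abundance read by NGS, three biological replicates, DESeq2 with apeglm shrinkage.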

Sequence | shrunken log2 fold change
RRIRSRPPRLPRPRPRPNIQPRP | -0.28
RRIRSRPPRLPRPRPRPNITPRP | -0.582
RRIRSRPPRLPRPRPRPNLTPRP | -0.15
RRIRSRPPRLPRPRPRPNMIPRP | -0.429
RRIRSRPPRLPRPRPRPNNLPRP | -1.04
RRIRSRPPRLPRPRPRPNPMPRP | -0.111
RRIRSRPPRLPRPRPRPNQSPRP | -0.0432
RRIRSRPPRLPRPRPRPNRGPRP | 0.0138
RRIRSRPPRLPRPRPRPNSDPRP | -0.0183
RRIRSRPPRLPRPRPRPNSMPRP | -0.215
RRIRSRPPRLPRPRPRPNTPPRP | -0.616
RRIRSRPPRLPRPRPRPNVPPRP | -0.131
RRIRSRPPRLPRPRPRPNWKPRP | 0.00354
RRIRSRPPRLPRPRPRPNYRPRP | -0.366
RRIRSRPPRLPRPRPRPPAHPRP | 0.303
RRIRSRPPRLPRPRPRPPASPRP | 0.694
RRIRSRPPRLPRPRPRPPCSPRP | 0.198
RRIRSRPPRLPRPRPRPPGKPRP | -0.0498
RRIRSRPPRLPRPRPRPPGQPRP | 0.4
RRIRSRPPRLPRPRPRPPGVPRP | 0.293
RRIRSRPPRLPRPRPRPPHNPRP | -0.0338
RRIRSRPPRLPRPRPRPPIKPRP | -0.221

Sequence | shrunken log2 fold change
RRIRSRPPRLPRPRPRPPILPRP | 0.0371
RRIRSRPPRLPRPRPRPPKIPRP | -0.0117
RRIRSRPPRLPRPRPRPPKQPRP | -0.215
RRIRSRPPRLPRPRPRPPKVPRP | -0.211
RRIRSRPPRLPRPRPRPPLGPRP | 0.399
RRIRSRPPRLPRPRPRPPLMPRP | 0.129
RRIRSRPPRLPRPRPRPPMEPRP | -0.117
RRIRSRPPRLPRPRPRPPMYPRP | -0.549
RRIRSRPPRLPRPRPRPPNLPRP | -0.148
RRIRSRPPRLPRPRPRPPQFPRP | -0.103
RRIRSRPPRLPRPRPRPPQKPRP | 0.463
RRIRSRPPRLPRPRPRPPQQPRP | 0.38
RRIRSRPPRLPRPRPRPPRYPRP | -0.0232
RRIRSRPPRLPRPRPRPPVDPRP | 0.327
RRIRSRPPRLPRPRPRPPVLPRP | 0.0563
RRIRSRPPRLPRPRPRPPVVPRP | 0.473
RRIRSRPPRLPRPRPRPPYEPRP | 0.0519
RRIRSRPPRLPRPRPRPPYLPRP | -0.45
RRIRSRPPRLPRPRPRPQAIPRP | 0.0296
RRIRSRPPRLPRPRPRPQAPPRP | 0.142
RRIRSRPPRLPRPRPRPQCHPRP | -0.113
RRIRSRPPRLPRPRPRPQCVPRP | -0.204

Sequence | shrunken log2 fold change
RRIRSRPPRLPRPRPRPQDDPRP | -0.351
RRIRSRPPRLPRPRPRPQDLPRP | -0.0949
RRIRSRPPRLPRPRPRPQEEPRP | -0.0262
RRIRSRPPRLPRPRPRPQEGPRP | -0.0317
RRIRSRPPRLPRPRPRPQEIPRP | -0.16
RRIRSRPPRLPRPRPRPQFFPRP | -0.158
RRIRSRPPRLPRPRPRPQGEPRP | -0.0953
RRIRSRPPRLPRPRPRPQGFPRP | -0.0809
RRIRSRPPRLPRPRPRPQHCPRP | -0.0942
RRIRSRPPRLPRPRPRPQHEPRP | -0.296
RRIRSRPPRLPRPRPRPQLQPRP | 0.104
RRIRSRPPRLPRPRPRPQMIPRP | -0.292
RRIRSRPPRLPRPRPRPQNLPRP | -0.394
RRIRSRPPRLPRPRPRPQPQPRP | 0.47
RRIRSRPPRLPRPRPRPQPTPRP | 0.447
RRIRSRPPRLPRPRPRPQQQPRP | -0.0954
RRIRSRPPRLPRPRPRPQQYPRP | -0.525
RRIRSRPPRLPRPRPRPQRFPRP | -0.152
RRIRSRPPRLPRPRPRPQRQPRP | 0.116
RRIRSRPPRLPRPRPRPQSPPRP | -0.0599
RRIRSRPPRLPRPRPRPQTAPRP | 0.0464
RRIRSRPPRLPRPRPRPQVAPRP | 0.0589

Sequence | shrunken log2 fold change
RRIRSRPPRLPRPRPRPQVKPRP | -0.146
RRIRSRPPRLPRPRPRPQVLPRP | -0.0779
RRIRSRPPRLPRPRPRPQWCPRP | 0.111
RRIRSRPPRLPRPRPRPQWFPRP | -0.241
RRIRSRPPRLPRPRPRPQWKPRP | -0.0984
RRIRSRPPRLPRPRPRPQWNPRP | -0.259
RRIRSRPPRLPRPRPRPQYKPRP | -0.464
RRIRSRPPRLPRPRPRPRCGPRP | 0.34
RRIRSRPPRLPRPRPRPRDTPRP | 0.0657
RRIRSRPPRLPRPRPRPRFGPRP | 0.342
RRIRSRPPRLPRPRPRPRGDPRP | 0.477
RRIRSRPPRLPRPRPRPRGQPRP | 0.197
RRIRSRPPRLPRPRPRPRGSPRP | 0.378
RRIRSRPPRLPRPRPRPRHFPRP | 0.141
RRIRSRPPRLPRPRPRPRHMPRP | -0.0166
RRIRSRPPRLPRPRPRPRHPPRP | 0.215
RRIRSRPPRLPRPRPRPRIIPRP | -0.712
RRIRSRPPRLPRPRPRPRISPRP | 0.0353
RRIRSRPPRLPRPRPRPRKRPRP | 0.213
RRIRSRPPRLPRPRPRPRKSPRP | 0.139
RRIRSRPPRLPRPRPRPRLEPRP | 0.596
RRIRSRPPRLPRPRPRPRMDPRP | -0.291

Sequence | shrunken log2 fold change
RRIRSRPPRLPRPRPRPRMHPRP | 0.173
RRIRSRPPRLPRPRPRPRNIPRP | -0.28
RRIRSRPPRLPRPRPRPRNMPRP | -0.53
RRIRSRPPRLPRPRPRPRPGPRP | 0.658
RRIRSRPPRLPRPRPRPRPHPRP | 0.151
RRIRSRPPRLPRPRPRPRPNPRP | 0.345
RRIRSRPPRLPRPRPRPRRKPRP | 0.207
RRIRSRPPRLPRPRPRPRTEPRP | 0.00553
RRIRSRPPRLPRPRPRPSCCPRP | -0.102
RRIRSRPPRLPRPRPRPSDGPRP | -0.124
RRIRSRPPRLPRPRPRPSDKPRP | -0.351
RRIRSRPPRLPRPRPRPSDSPRP | -0.612
RRIRSRPPRLPRPRPRPSDTPRP | -0.396
RRIRSRPPRLPRPRPRPSEDPRP | -0.325
RRIRSRPPRLPRPRPRPSEVPRP | -0.015
RRIRSRPPRLPRPRPRPSFHPRP | -0.542
RRIRSRPPRLPRPRPRPSFMPRP | -0.335
RRIRSRPPRLPRPRPRPSHFPRP | -0.182
RRIRSRPPRLPRPRPRPSHHPRP | -0.515
RRIRSRPPRLPRPRPRPSICPRP | -0.0672
RRIRSRPPRLPRPRPRPSISPRP | -0.584
